The source of these data is the Human Domainome abundance scans (Beltran et al. 2025).

± gives the uncertainty stated by the source.

To fix the notation:
B1: Zinc finger MYM-type protein 3, residues 589 to 668; numbered along this chain, Q14202 (parent)
chain: LSCHYCHSLFSGKPEVLDWQDQVFQFCCRDCCEDFKRLRGVVSQCEHCRQEKLLHEKLRFSGVEKSFCSEGCVLLYKQDF

Variants of B1 are the subject of the data set. Nature of the data set: abundance fitness (aPCA) (normalised: wild type 0, dead -1); higher = more abundant; growth selection in yeast, the domain comes from the species named. The following applies: Homo sapiens.
Turning to LSCHYCHSLFSGKPEVLDWQDQVFQFCCRDCCESFKRLRGVVSQCEHCRQEKLLHEKLRFSGVEKSFCSEGCVLLYKQDF [D34S], the abundance fitness was -0.164 ± 0.045. As for LSCHYCHSLFSGKPEVLDWQDQVFQFCCRDCCEAFKRLRGVVSQCEHCRQEKLLHEKLRFSGVEKSFCSEGCVLLYKQDF [D34A], the figure is 0.064 ± 0.047; as for LSCHYCHSLFSGKPEVLDWQDQVFQFCCRDCCEDFHRLRGVVSQCEHCRQEKLLHEKLRFSGVEKSFCSEGCVLLYKQDF [K36H], -0.089 ± 0.057; as for LSCHYCISLFSGKPEVLDWQDQVFQFCCRDCCEDFKRLRGVVSQCEHCRQEKLLHEKLRFSGVEKSFCSEGCVLLYKQDF [H7I], 0.088 ± 0.095.

Turning to LSCHYCHSLISGKPEVLDWQDQVFQFCCRDCCEDFKRLRGVVSQCEHCRQEKLLHEKLRFSGVEKSFCSEGCVLLYKQDF [F10I], the abundance fitness was -0.115 ± 0.064. The value for LSCHYCHSLFSGKPEVLDWQDQVFQFCCRDCCEDFKRLRGEVSQCEHCRQEKLLHEKLRFSGVEKSFCSEGCVLLYKQDF [V41E] was 0.079 ± 0.13; that for LSCHYCHSLFSGKPEVLDWQDQVFQFCCRDCCEDFKRLRGKVSQCEHCRQEKLLHEKLRFSGVEKSFCSEGCVLLYKQDF [V41K] was 0.398 ± 0.39; that for LSCHYCHSLFSGKPEVLDWQDQVFQFCCRDCCEDFKRLRGVVSQCEHCRQEKLLHEKLRFSGVEKSFCSEGCVLAYKQDF [L75A] was 0.615 ± 0.073.

In the case of LSCHYCHSLFSGKPEVLDWQDQVFQFCCRDCCEDFKRLRGVVSQCEHCRQEKLLHEKLRFSGVEKSFCSEGCVLQYKQDF [L75Q], the abundance fitness is 0.573 ± 0.18. LSCHYCHSLFSGKPEVLDWQDQVFQFCCRDCCEDFKRLRGVVSQCCHCRQEKLLHEKLRFSGVEKSFCSEGCVLLYKQDF [E46C]: the abundance fitness came to 0.271 ± 0.2.

For LSCHYCHSLFSGKPEVLDWQDQVFQFCCRDCCEDFKRLRGVVSQCEHCRQEKLLHEKLRFSGVEKSFASEGCVLLYKQDF [C68A], the abundance fitness was -0.93 ± 0.23.

Consider LSCHYCHSLFSGKPEVLDKQDQVFQFCCRDCCEDFKRLRGVVSQCEHCRQEKLLHEKLRFSGVEKSFCSEGCVLLYKQDF [W19K], for which the abundance fitness was 0.183 ± 0.048. As for LSCHYCHSLFSGKPEVLDWQDQVFQFCCRDCCEDFKRLRGVVSQCEHCRQEKLLHEKLRFSGVEKSFCSEGCVLLYKQKF [D79K], the figure is 0.856 ± 0.22; as for LSCHYGHSLFSGKPEVLDWQDQVFQFCCRDCCEDFKRLRGVVSQCEHCRQEKLLHEKLRFSGVEKSFCSEGCVLLYKQDF [C6G], -1.05 ± 0.07.

On to LSCHYCHSLFSGKPEVLDWQDQVFQFCCRDECEDFKRLRGVVSQCEHCRQEKLLHEKLRFSGVEKSFCSEGCVLLYKQDF [C31E], for which the abundance fitness is -0.573 ± 0.096. In the case of LSCHYCHELFSGKPEVLDWQDQVFQFCCRDCCEDFKRLRGVVSQCEHCRQEKLLHEKLRFSGVEKSFCSEGCVLLYKQDF [S8E], the abundance fitness worked out at 0.154 ± 0.046. As for LSCHYCHFLFSGKPEVLDWQDQVFQFCCRDCCEDFKRLRGVVSQCEHCRQEKLLHEKLRFSGVEKSFCSEGCVLLYKQDF [S8F], the figure is -0.039 ± 0.084; as for LSCHYCHSLFSGKPEVLDWQDQVFQFCCRDCCEDFKRLRGVVSQCEHCRQEPLLHEKLRFSGVEKSFCSEGCVLLYKQDF [K52P], -0.998 ± 0.35. As for LSCHYCHSLFSGKPEVLDWQDQVFQFCCRDCCEDFKRLRGVVSQCEHCRQEKLLHEKLRFSGVEKSHCSEGCVLLYKQDF [F67H], the figure is 0.092 ± 0.13; as for LSCHYCHSLFSGNPEVLDWQDQVFQFCCRDCCEDFKRLRGVVSQCEHCRQEKLLHEKLRFSGVEKSFCSEGCVLLYKQDF [K13N], -0.198 ± 0.13; as for LSCHYCHSLFSGKPEVKDWQDQVFQFCCRDCCEDFKRLRGVVSQCEHCRQEKLLHEKLRFSGVEKSFCSEGCVLLYKQDF [L17K], -0.359 ± 0.076. For LSCHYCHSLFSGKPEVLDWQDQVFQFCCGDCCEDFKRLRGVVSQCEHCRQEKLLHEKLRFSGVEKSFCSEGCVLLYKQDF [R29G], the abundance fitness was 0.008 ± 0.04. Take LSCHYCHSLFSGKPEVLDWQDQVFQFCCRDCCEDFKRLRGVVSQCEHCRQEKLLDEKLRFSGVEKSFCSEGCVLLYKQDF [H55D]: the abundance fitness came out at 0.35 ± 0.49. As to LSCHYCHSLFSGKPEVLDWQDQVFQFCCRDCCEDFKRLRGVVSQCEHCRQEKLLREKLRFSGVEKSFCSEGCVLLYKQDF [H55R], the abundance fitness was 0.057 ± 0.09. For the variant LSCHYCHSLFSGKPEVLDWQDQEFQFCCRDCCEDFKRLRGVVSQCEHCRQEKLLHEKLRFSGVEKSFCSEGCVLLYKQDF [V23E], the abundance fitness turned out to be 0.227 ± 0.049. The value for LSCHYCHSLFSGKPEVLDWQDQVFQFCCRDCCEDFKRLRGVVSQCEHCLQEKLLHEKLRFSGVEKSFCSEGCVLLYKQDF [R49L] was -0.131 ± 0.11; that for LSCHYCHSLFSGKPEVLDWQDQVFQFCCRDCCEDFKRLRGVVSMCEHCRQEKLLHEKLRFSGVEKSFCSEGCVLLYKQDF [Q44M] was 0.576 ± 0.14; that for LSCHYCHSLFSGKPEVLDWQDQVFQFCCRDCCEDFKRLRGVVSQCEHCRQEKLLHEKLRFSGVEKSFCSEKCVLLYKQDF [G71K] was 0.337 ± 0.22.

Consider LSCHYCHSLFSGKPEVLDWQDQVFQFCCRDCCEDFKRLRGVVSQCEHCRQEKLLHEKLRFSGVEKSFCSECCVLLYKQDF [G71C], for which the abundance fitness is -0.535 ± 0.21. The value for LSCHYCHSLFSGKPEVLDWQDQVFQFCCRDCSEDFKRLRGVVSQCEHCRQEKLLHEKLRFSGVEKSFCSEGCVLLYKQDF [C32S] was -0.227 ± 0.047. The value for LSCHYCHSLFSGKPEVLDWQDQVFQFCCRDCLEDFKRLRGVVSQCEHCRQEKLLHEKLRFSGVEKSFCSEGCVLLYKQDF [C32L] was -0.027 ± 0.042; that for LSCHYCHSLFSGKPEVLDWQDQVFQFCCRDCEEDFKRLRGVVSQCEHCRQEKLLHEKLRFSGVEKSFCSEGCVLLYKQDF [C32E] was -0.203 ± 0.055; that for LSCHYCHSLFSGKPEVLDWQDQVFQFCCRDCCEDFKRLRGVVSQCEHCRQEKLLHEKLRFSGVDKSFCSEGCVLLYKQDF [E64D] was 0.047 ± 0.31. For LSCHYCHSLFSRKPEVLDWQDQVFQFCCRDCCEDFKRLRGVVSQCEHCRQEKLLHEKLRFSGVEKSFCSEGCVLLYKQDF [G12R], the abundance fitness was -0.145 ± 0.04. The value for LSCHYCHSLFSPKPEVLDWQDQVFQFCCRDCCEDFKRLRGVVSQCEHCRQEKLLHEKLRFSGVEKSFCSEGCVLLYKQDF [G12P] was -0.227 ± 0.05.
